How the values were obtained:
[1] = molecular target: T1, binding between TAK1 and TAB1 (Homo sapiens, UniProt O43318); experiment: Immunoprecipitation and Western analysis binding-inhibition study using synthetic peptides; design: dose or concentration left out as unconfirmed; settings: COS-7 cell extracts with TAK1-6×His or FLAG-TAB1; compared to no peptide
T1 construct: amino acid Met at amino acid position 1 to amino acid Ser at amino acid position 579; made in house; host or cells: COS-7 cells transfected with pCOS-TAK1 or pCOS-FTAB1; unpurified cell extracts
T1 sequence (O43318 1-579 isoform O43318-2): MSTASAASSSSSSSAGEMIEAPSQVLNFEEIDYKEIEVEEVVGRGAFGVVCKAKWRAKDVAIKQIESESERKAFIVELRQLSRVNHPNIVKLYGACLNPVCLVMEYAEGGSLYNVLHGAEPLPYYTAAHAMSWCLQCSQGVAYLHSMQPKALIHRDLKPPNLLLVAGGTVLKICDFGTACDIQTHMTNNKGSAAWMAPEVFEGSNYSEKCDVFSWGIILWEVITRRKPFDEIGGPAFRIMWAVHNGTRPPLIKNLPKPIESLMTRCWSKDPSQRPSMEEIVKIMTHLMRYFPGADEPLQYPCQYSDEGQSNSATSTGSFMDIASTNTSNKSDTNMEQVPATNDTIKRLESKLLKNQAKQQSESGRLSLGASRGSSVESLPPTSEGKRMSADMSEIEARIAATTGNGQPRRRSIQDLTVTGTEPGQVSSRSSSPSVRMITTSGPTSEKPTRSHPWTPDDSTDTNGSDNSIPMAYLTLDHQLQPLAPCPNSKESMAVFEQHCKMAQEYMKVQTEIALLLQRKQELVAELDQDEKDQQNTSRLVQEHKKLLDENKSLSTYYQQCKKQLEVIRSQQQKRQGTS
Excerpt: The fact that a synthetic peptide containing the amino acid sequence identified as the TAK1 binding region can inhibit binding between TAK1 and TAB1 was confirmed by the following experiment. Thus, a peptide TAB1C-1 (SEQ ID NO: 40) comprising 16 amino acid residues containing the TAK1 binding region of TAB1 described in the above Example and a control peptide TAB1C-2 (SEQ ID NO: 41) containing an amino acid sequence from Gln at position 437 to Gln at position 451 of TAB1 were each synthesized, and were evaluated for their effects on the binding between TAK1 and TAB1. The TAK1 and TAB1 used in the present invention were prepared in the following manner. […]
Subsequently, cell extracts each containing TAK1-6×His or FLAG-TAB1 and a 5 mM synthetic peptide were mixed to a final concentration of […], respectively, and then incubated overnight at 4° C. It was then immunoprecipitated using anti-TAK1 antibody, and the amount of bound TAK1 and TAB1 was evaluated by determining the amount of TAB1 that coprecipitated by Western analysis. […] After it was blocked using a TBS solution containing 5% BSA, TAK1 in the immunoprecipitate was detected using anti-TAK1 antibody (manufactured by SantaCruz) and the coprecipitataed FLAG-TAB1 was detected using anti-FLAG M2 antibody (manufactured by Kodak). […]

[2] = molecular target: T2, human TAK1-6×His polypeptide (Homo sapiens, UniProt O43318); experiment: ELISA in vitro binding-evaluation system: MBP-TAB1C-FLAG on immobilized TAK1-6×His; settings: 100 ng TAK1-6×His per well; no increase where TAK1-6×His was not immobilized
T2 construct: amino acid Met at amino acid position 1 to amino acid Ser at amino acid position 579; made in house; host or cells: Sf9 insect cells, recombinant baculovirus
T2 sequence (O43318 1-579 isoform O43318-2): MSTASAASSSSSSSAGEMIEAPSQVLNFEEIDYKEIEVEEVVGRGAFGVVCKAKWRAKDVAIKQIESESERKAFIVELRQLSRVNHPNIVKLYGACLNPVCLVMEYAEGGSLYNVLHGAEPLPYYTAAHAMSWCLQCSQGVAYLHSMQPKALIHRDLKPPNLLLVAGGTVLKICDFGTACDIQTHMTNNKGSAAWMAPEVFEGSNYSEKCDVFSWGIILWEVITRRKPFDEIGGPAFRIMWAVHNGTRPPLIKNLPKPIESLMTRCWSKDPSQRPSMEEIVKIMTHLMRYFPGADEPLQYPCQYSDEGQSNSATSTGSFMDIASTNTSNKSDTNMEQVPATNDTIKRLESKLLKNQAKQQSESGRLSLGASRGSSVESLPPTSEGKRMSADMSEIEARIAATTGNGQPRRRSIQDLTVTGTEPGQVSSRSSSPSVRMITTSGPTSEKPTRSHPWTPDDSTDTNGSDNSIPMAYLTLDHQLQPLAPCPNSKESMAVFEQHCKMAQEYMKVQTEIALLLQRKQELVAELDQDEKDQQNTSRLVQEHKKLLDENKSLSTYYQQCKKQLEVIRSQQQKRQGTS
Excerpt: Using the purified product obtained as above an ELISA system was constructed to detect in vitro an interaction between the recombinant human TAB1 polypeptide or the recombinant MBP-TAB1C-FLAG polypeptide and the recombinant human-TAK1 polypeptide. In the ELISA system it is intended to contact the recombinant human TAB1-FLAG polypeptide or the human MBP-TAB1C-FLAG polypeptide to a 96-well immunoplate to which the human TAK1-6×His polypeptide had been previously immobilized and thereby to detect the recombinant human TAB1-FLAG polypeptide or the recombinant MBP-TAB1C-FLAG polypeptide using a primary and secondary antibody.
(1) The purified product of human TAK1-6×His polypeptide was diluted in the immobilization buffer (0.1 M NaHCO3, 0.02% NaN3, pH 9.6). To each well of a 96-well immunoplate (manufactured by Nunc) was added 100 μl each of the diluted aqueous solution (equivalent to 100 ng of the human TAK1-6×His polypeptide), and the plate was incubated overnight at 4° C. […]
After each well was washed five times with the wash buffer, 100 μl of the color development solution (the substrate buffer; p-nitrophenyl phosphate dissolved to 1 mg/ml in 50 mM NaHCO3, 10 mM MgCl21 pH 9.8, manufactured by Sigma) was added to each well and was incubated at room temperature, and then absorbance at 405 nm was determined using a microplate reader (Model 3550, manufactured by BIO-RAD).

[3] = molecular target: T3, binding between the recombinant MBP-TAB1C-FLAG polypeptide and the recombinant TAK1 polypeptide (Homo sapiens, UniProt O43318); experiment: ELISA binding-inhibition study with TAB1-FLAG as inhibiting substance; settings: serially diluted TAB1-FLAG added together with MBP-TAB1C-FLAG
T3 construct: amino acid Met at amino acid position 1 to amino acid Ser at amino acid position 579; made in house; host or cells: TAK1-6xHis: Sf9/baculovirus; MBP-TAB1C-FLAG: E. coli periplasm (pMAL-p2)
T3 sequence (O43318 1-579 isoform O43318-2): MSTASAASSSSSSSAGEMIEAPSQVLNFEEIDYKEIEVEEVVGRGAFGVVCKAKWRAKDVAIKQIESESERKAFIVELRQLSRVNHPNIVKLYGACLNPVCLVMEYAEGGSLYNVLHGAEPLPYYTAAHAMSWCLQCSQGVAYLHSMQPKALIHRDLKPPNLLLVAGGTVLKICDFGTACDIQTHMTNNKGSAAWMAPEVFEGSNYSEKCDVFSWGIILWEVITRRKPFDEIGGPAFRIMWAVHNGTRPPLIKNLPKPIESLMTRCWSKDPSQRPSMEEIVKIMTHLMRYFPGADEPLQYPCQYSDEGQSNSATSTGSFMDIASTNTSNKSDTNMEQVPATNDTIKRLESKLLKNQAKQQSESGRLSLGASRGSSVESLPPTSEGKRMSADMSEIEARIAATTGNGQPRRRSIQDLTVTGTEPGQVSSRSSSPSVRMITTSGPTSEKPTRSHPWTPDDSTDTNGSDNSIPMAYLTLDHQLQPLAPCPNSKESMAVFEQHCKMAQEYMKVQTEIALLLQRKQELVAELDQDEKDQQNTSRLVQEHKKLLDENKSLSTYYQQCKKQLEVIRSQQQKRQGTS
Method: It was investigated whether the recombinant human TAB1-FLAG polypeptide used as an inhibiting substance inhibits binding between the recombinant MBP-TAB1C-FLAG polypeptide and the recombinant TAK1 polypeptide.
In a similar manner to that in the above 5-1 (2), the recombinant human TAK1-6×His polypeptide was immobilized and was blocked. Then the recombinant human TAB1-FLAG polypeptide that was serially diluted in the dilution buffer was added as a binding-inhibiting substance to each well together with 16.5 μl each of the recombinant MBP-TAB1C-FLAG polypeptide and incubated.

Question: “TAB1C-1: peptide comprising 16 amino acid residues containing the TAK1 binding region of TAB1 (SEQ ID NO: 40) (CVEPYVDFAEFYRGRK; OTHER INFORMATION: Description of Artificial Sequence: Synthetic peptide)” was tested. Which “effect on binding between TAK1 and TAB1: amount of coprecipitated FLAG-TAB1” value [1] did it give?
Answer: Its value is “a decrease in the amount of coprecipitated FLAG-TAB1 was observed”.

Question: Which “effect on binding between TAK1 and TAB1: amount of coprecipitated FLAG-TAB1” value [1] does the source give for “TAB1C-2: control peptide containing an amino acid sequence from Gln at position 437 to Gln at position 451 of TAB1 (SEQ ID NO: 41) (CQSPTLTLQSTNTHTQ; OTHER INFORMATION: Description of Artificial Sequence: Synthetic peptide)” here?
Answer: The value was “no decrease in binding between TAK1 and TAB1 was observed”.

B1: MBP-TAB1C-FLAG: fusion polypeptide of 81 amino acids at the carboxy terminal of human TAB1 and maltose-binding protein, with FLAG tag (protein)
chain: ASTLDEATPTLTNQSPTLTLQSTNTHTQSSSSSSDGGLFRSRPAHSLPPGEDGRVEPYVDFAEFYRLWSVDHGEQSVVTAPDYKDDDDK
modifications: left off: large carriers
Question: B1 was tested. Which “binding to immobilized human TAK1-6×His polypeptide, absorbance at 405 nm” value [2] did it give?
Answer: Its value is “absorbance increased depending on the concentration”.

B2: TAB1-FLAG: full-length human TAB1 with a FLAG tag added to the carboxy terminal (SEQ ID NO: 11) (protein)
chain: MAAQRRSLLQSEQQPSWTDDLPLCHLSGVGSASNRSYSADGKGTESHPPEDSWLKFRSENNCFLYGVFNGYDGNRVTNFVAQRLSAELLLGQLNAEHAEADVRRVLLQAFDVVERSFLESIDDALAEKASLQSQLPEGVPQHQLPPQYQKILERLKTLEREISGGAMAVVAVLLNNKLYVANVGTNRALLCKSTVDGLQVTQLNVDHTTENEDELFRLSQLGLDAGKIKQVGIICGQESTRRIGDYKVKYGYTDIDLLSAAKSKPIIAEPEIHGAQPLDGVTGFLVLMSEGLYKALEAAHGPGQANQEIAAMIDTEFAKQTSLDAVAQAVVDRVKRIHSDTFASGGERARFCPRHEDMTLLVRNFGYPLGEMSQPTPSPAPAAGGRVYPVSVPYSSAQSTSKTSVTLSLVMPSQGQMVNGAHSASTLDEATPTLTNQSPTLTLQSTNTHTQSSSSSSDGGLFRSRPAHSLPPGEDGRVEPYVDFAEFYRLWSVDHGEQSVVTAPGTGGSDYKDDDDK
modifications: C-terminal FLAG tag
Question: Which “inhibition of binding between MBP-TAB1C-FLAG and TAK1-6×His, absorbance” value [3] does the source give for B2 here?
Answer: Its value is “decrease in absorbance dependent on the concentration”.
